Results published in publication PMC5268420 (PLoS ONE, 2017).

Tests used:
[1] = biological target: T1, αIIbβ3 integrin on lyophilized platelets (Homo sapiens (assumed), UniProt P08514;P05106); experiment: BLI; Octet Red96; TEG4-2c scFv loaded on HIS2 (anti-penta-His) sensor at 21 μg/mL; platelets 5x10^5 to 5x10^8/mL (αIIbβ3 42 pM to 42 nM) as analyte; platelet buffer; details: one partner purified
T1 construct: integrin αIIb (CD41) on lyophilized platelets; integrin β3 on lyophilized platelets; Platelet concentrations were converted into αIIbβ3 molarities with 50 000 αIIbβ3 per platelet; also called whole platelets; blood platelets; source: bought: lyophilized platelets, Helena Biosciences Europe, resuspended
T1 sequence (P08514 32-1039, chain 1 of 2): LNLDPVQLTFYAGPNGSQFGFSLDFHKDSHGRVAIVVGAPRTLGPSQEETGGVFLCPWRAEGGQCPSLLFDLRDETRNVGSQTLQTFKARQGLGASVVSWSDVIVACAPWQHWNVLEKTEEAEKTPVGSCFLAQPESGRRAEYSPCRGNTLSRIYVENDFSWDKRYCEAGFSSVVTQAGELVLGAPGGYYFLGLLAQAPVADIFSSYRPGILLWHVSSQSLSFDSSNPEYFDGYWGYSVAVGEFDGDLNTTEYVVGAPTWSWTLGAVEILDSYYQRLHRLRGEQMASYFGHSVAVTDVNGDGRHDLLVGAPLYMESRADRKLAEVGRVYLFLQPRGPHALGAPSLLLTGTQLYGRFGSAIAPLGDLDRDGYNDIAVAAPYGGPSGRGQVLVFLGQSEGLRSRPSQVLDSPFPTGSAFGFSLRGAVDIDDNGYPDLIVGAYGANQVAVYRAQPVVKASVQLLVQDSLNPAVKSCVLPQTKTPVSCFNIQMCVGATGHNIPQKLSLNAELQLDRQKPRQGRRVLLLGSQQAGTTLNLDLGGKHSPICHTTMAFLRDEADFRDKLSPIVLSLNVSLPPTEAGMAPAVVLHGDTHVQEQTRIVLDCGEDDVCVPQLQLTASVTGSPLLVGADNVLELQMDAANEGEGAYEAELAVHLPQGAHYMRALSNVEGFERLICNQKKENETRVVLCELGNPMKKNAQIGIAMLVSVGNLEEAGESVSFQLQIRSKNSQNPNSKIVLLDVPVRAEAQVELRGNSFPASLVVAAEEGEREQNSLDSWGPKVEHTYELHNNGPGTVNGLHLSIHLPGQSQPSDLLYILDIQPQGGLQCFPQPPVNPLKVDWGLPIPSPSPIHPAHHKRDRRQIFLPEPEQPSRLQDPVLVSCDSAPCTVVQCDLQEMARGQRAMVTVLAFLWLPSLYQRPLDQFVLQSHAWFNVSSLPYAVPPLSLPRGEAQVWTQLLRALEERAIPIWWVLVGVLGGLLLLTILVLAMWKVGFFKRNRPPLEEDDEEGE
T1 sequence (P05106 27-788, chain 2 of 2): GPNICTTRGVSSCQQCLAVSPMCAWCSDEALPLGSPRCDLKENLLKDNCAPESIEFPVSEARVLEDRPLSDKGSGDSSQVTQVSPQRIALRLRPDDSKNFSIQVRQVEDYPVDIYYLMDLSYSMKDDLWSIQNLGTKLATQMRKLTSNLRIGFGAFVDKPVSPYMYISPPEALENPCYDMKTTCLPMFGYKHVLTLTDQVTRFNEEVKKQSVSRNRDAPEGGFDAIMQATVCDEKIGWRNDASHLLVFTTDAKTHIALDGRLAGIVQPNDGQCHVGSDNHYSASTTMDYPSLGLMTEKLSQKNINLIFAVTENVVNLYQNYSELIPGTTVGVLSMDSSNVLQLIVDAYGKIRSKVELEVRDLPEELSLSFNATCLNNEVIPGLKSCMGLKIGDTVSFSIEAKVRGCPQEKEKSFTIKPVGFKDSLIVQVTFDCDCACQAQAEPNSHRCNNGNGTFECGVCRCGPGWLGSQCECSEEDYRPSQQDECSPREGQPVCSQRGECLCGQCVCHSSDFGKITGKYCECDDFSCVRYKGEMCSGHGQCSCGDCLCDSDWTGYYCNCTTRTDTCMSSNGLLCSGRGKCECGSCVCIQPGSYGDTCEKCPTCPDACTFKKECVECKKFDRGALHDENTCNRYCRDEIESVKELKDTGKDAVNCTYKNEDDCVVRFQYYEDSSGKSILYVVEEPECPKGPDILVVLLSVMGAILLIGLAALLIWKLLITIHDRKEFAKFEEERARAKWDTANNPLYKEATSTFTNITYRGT

[2] = biological target: T2, αIIbβ3 integrin of rabbit platelets in aorta (Oryctolagus cuniculus, New Zealand, UniProt Q9TUN4;Q9TUN3); experiment: immunostaining of cells or tissue; paraffin sections of atherosclerotic arteries of mouse, rabbit and human; scFv 20-40 μg/ml overnight at 4°C; detected with HRP anti-6His and DAB; details: one partner purified
T2 construct: integrin αIIb (CD41), rabbit, endogenous in aorta tissue; integrin β3, rabbit, endogenous in aorta tissue; In the ELISA the integrin stood within solubilised aorta proteins (T-PER or HSB lysis buffer), not on cells; also called atheromatous proteins; healthy aorta proteins; source: endogenous, New Zealand rabbit aorta (paraffin sections; soluble protein extracts of atheromatous and healthy aorta)

[3] = biological target: T3, αIIbβ3 integrin on murine platelets in atherosclerotic aorta sections (Mus musculus, ApoE-/-, UniProt Q9QUM0;O54890); experiment: as above; details: one partner purified
T3 construct: integrin αIIb (CD41), mouse, on platelets in tissue; integrin β3, mouse, on platelets in tissue; source: endogenous, paraffin sections of aorta of ApoE-/- mice
T3 sequence (Q9QUM0 32-1033, chain 1 of 2): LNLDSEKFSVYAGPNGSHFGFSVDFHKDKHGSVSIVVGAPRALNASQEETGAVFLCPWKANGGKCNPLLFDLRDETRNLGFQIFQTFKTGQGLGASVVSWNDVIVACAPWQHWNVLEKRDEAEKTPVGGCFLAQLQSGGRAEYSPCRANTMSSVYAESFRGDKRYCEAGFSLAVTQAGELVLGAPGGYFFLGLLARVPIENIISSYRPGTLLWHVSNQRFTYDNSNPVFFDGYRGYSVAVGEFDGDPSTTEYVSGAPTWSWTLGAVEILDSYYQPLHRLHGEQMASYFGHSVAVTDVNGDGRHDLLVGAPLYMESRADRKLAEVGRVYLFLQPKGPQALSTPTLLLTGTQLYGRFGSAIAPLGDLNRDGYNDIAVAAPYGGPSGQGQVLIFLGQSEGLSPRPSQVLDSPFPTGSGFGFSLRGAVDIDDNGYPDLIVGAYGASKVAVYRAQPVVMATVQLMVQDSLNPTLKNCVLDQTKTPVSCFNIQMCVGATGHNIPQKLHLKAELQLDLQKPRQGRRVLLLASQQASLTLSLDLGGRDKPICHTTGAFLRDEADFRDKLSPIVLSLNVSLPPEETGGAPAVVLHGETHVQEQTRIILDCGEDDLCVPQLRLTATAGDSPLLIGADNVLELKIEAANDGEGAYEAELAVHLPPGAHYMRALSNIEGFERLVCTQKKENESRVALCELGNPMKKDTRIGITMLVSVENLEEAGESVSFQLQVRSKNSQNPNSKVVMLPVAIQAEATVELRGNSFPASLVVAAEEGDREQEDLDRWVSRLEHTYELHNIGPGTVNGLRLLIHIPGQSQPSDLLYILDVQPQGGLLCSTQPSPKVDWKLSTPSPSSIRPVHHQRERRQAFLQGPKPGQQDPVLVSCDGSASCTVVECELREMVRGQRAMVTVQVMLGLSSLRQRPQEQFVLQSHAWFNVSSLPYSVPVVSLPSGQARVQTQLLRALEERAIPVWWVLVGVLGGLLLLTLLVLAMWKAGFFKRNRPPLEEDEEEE
T3 sequence (O54890 26-787, chain 2 of 2): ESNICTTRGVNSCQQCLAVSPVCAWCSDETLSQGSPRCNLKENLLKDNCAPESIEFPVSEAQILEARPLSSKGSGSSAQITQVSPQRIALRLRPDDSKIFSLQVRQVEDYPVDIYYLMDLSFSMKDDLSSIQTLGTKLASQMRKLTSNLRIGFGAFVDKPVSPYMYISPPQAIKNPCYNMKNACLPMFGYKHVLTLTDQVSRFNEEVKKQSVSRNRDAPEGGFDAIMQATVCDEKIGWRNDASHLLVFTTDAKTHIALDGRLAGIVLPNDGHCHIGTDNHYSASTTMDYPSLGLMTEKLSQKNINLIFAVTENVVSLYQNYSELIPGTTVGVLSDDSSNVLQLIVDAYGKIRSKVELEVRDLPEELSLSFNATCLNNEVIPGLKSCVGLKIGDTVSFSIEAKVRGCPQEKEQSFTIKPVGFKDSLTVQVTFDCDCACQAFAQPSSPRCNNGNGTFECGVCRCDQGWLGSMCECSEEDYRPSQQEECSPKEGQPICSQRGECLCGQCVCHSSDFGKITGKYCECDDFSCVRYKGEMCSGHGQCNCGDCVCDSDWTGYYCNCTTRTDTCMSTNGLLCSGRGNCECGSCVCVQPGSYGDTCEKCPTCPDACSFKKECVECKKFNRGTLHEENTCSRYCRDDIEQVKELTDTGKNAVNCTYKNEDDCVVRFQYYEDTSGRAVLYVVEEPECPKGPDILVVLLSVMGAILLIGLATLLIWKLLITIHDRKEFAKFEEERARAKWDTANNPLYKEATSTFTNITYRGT

purified αIIbβ3 integrin = biological target: T4, purified αIIbβ3 integrin (Homo sapiens (assumed), UniProt P08514;P05106); experiment: SPR; Biacore 3000; αIIbβ3 amine-coupled on CM5 (about 8000 RU); scFv injected at 94, 188 and 390 nM; HBS-EP with 2 mM Ca2+; 20 μL/min; details: both partners purified
T4 construct: integrin αIIb (CD41) subunit of purified αIIbβ3; integrin β3 subunit of purified αIIbβ3; probably from human platelets (surmise); also called integrin αIIbβ3; source: bought: Kordia Life Sciences
T4 sequence (P08514 32-1039, chain 1 of 2): as the sequence (P08514 32-1039, chain 1 of 2) above
T4 sequence (P05106 27-718, chain 2 of 2): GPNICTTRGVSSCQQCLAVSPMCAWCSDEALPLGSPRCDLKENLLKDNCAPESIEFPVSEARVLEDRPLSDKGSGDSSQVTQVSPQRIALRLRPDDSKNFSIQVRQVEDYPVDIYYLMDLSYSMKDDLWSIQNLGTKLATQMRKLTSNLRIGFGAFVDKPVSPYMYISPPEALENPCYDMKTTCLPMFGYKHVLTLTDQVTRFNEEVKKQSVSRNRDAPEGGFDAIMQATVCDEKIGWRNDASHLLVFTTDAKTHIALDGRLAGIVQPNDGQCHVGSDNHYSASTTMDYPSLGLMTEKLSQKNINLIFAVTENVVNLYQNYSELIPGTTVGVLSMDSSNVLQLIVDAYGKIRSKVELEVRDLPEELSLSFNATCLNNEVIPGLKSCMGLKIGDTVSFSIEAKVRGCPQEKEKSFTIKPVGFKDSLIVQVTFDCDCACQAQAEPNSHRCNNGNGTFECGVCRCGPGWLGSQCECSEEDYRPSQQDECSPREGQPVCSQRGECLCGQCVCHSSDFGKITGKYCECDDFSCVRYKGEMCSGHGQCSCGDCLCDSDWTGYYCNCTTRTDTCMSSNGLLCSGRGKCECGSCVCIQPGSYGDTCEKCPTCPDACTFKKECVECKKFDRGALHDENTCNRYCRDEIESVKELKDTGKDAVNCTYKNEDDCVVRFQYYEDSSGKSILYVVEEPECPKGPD

[4] = biological target: T5, αIIbβ3 integrin on human platelets (Homo sapiens, UniProt P08514;P05106); experiment: flow cytometry on cells; washed human platelets activated with 0.5 U/ml thrombin, PFA-fixed; 25 μg/mL TEG4-2c scFv overnight at 4°C; detected with Alexa Fluor 488 anti-6His; details: one partner purified
T5 construct: integrin αIIb (CD41), human, on platelets; integrin β3, human, on platelets; the state is told by the assay; also called A-PL; NA-PL; source: endogenous, human platelets (washed platelets and platelet-rich plasma from healthy donors; platelets in human coronary artery sections)
T5 sequence (P08514 32-1039, chain 1 of 2): as the sequence (P08514 32-1039, chain 1 of 2) above
T5 sequence (P05106 27-788, chain 2 of 2): as the sequence (P05106 27-788, chain 2 of 2) above

- binding result [1]: binds
- binding result [2]: binds
- binding result [3]: binds
- binding result (purified αIIbβ3 integrin): binds
- binding result [4]: binds
B1: TEG4-2c scFv (recombinant human anti-αIIbβ3 single-chain variable fragment with 6His-Gly-Cys-Cys C-terminus) (scFv, V domains shown)
VH: QVQLVESGGGVVQPGRSLRLSCAASGFTFSSYAMHWVRQAPGKGLEWVAVISYDGSNKYYADSVKGRFTISRDNSKNTLYLQMNSLRAEDTAVYYCARKSYFDYWGQGTLVTVSS
VL: VSELTQPASVSGSPGQSITISCTGTSSDVGGYNYVSWYQQHPGKAPKLMIYEVSNRPSGVSNRFSGSKSGNTASLTISGLQAEDEADYYCSSYTSSSTLVVFGGGTKLTVL
notes: Gly-Cys-Cys added after the 6His tag at the very C-terminus (printed in three-letter code as 'Gly-Cyc-Cys'), for site-specific grafting; Order at the C-terminus: scFv, c-myc tag, 6His, Gly-Cys-Cys; Purified fractions are said to hold monomers and dimers; also called scFv TEG4-2c; anti-αIIbβ3 TEG4-2c scFv; source: Pichia pastoris X33, secreted into the supernatant, purified (IMAC HisTrap excel, …)
